Assay results taken from patent US20210032365A1 (Chugai, published 2021).

Key:
human C1s [1] = target: T1, human C1s (human, UniProt P09871 16-688); assay: SPR (Biacore T200, 37C), Ab captured on protein A/G; pH 7.4, 1.2 mM Ca; pH 7.4, 1.2 mM Ca
T1 construct: Analyte in the Biacore assays; also called hC1s; serum-derived human C1s (CompTech)
T1 sequence: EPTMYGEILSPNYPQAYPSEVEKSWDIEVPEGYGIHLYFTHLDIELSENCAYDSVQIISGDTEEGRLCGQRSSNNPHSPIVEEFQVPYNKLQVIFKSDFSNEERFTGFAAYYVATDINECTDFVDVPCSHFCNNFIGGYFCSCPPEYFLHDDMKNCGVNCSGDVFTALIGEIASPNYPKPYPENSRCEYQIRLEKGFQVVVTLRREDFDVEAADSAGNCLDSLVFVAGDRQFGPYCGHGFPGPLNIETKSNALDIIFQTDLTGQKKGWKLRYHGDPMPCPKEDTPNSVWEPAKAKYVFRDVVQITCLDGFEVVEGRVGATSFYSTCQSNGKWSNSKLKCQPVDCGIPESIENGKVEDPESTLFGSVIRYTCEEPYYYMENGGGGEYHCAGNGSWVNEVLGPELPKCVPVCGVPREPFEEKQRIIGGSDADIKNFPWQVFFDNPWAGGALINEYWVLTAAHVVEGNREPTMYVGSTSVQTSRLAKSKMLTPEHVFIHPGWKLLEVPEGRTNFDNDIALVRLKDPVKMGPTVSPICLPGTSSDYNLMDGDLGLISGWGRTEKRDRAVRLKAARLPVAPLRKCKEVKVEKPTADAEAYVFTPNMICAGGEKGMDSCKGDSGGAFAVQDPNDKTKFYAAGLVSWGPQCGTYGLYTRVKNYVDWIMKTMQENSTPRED
Description: All variants were transiently expressed and purified by the method described above. The binding affinity of each histidine-substituted variant at pH 7.4 and pH 5.8 was determined at 37 degrees C. using Biacore T200 instrument (GE Healthcare). Recombinant Protein A/G (Pierce) was immobilized onto all flow cells of a CM4 sensor chip using an amine coupling kit (GE Healthcare). Antibodies and analytes were prepared in 7(+) buffer (20 mM ACES, 150 mM NaCl, 1.2 mM CaCl2, 0.05% Tween 20, 0.005% NaN3, pH 7.4), 5(+) buffer (20 mM ACES, 150 mM NaCl, 1.2 mM CaCl2, 0.05% Tween 20, 0.005% NaN3, pH 5.8), or 5(−) buffer (20 mM ACES, 150 mM NaCl, 3 micro M CaCl2, 0.05% Tween 20, 0.005% NaN3, pH 5.8). Each antibody was captured onto the sensor surface by protein A/G. Antibody capture levels were aimed at 200 resonance unit (RU). Serum-derived human C1s (CompTech) or recombinant C1s prepared in EXAMPLE 1 was injected at 50 nM, followed by dissociation. The sensor surface was regenerated in each cycle with 10 mM Glycine-HCl, pH 1.5. […] The ratio of KD 5.8+ to KD 7.4+(“KD 5+/7+”) and that of KD 5.8− to KD 7.4+(“KD 5−/7+”) were calculated. […] Antibodies with combinations of histidine mutations were evaluated using Biacore by the method described above.

human C1s [2] = target: T1, human C1s; assay: SPR (Biacore T200, 37C), Ab captured on protein A/G; pH 5.8, 1.2 mM Ca
Description: (§1) All variants were transiently expressed and purified by the method described above. The binding affinity of each histidine-substituted variant at pH 7.4 and pH 5.8 was determined at 37 degrees C. using Biacore T200 instrument (GE Healthcare). Recombinant Protein A/G (Pierce) was immobilized onto all flow cells of a CM4 sensor chip using an amine coupling kit (GE Healthcare). Antibodies and analytes were prepared in 7(+) buffer (20 mM ACES, 150 mM NaCl, 1.2 mM CaCl2, 0.05% Tween 20, 0.005% NaN3, pH 7.4), 5(+) buffer (20 mM ACES, 150 mM NaCl, 1.2 mM CaCl2, 0.05% Tween 20, 0.005% NaN3, pH 5.8), or 5(−) buffer (20 mM ACES, 150 mM NaCl, 3 micro M CaCl2, 0.05% Tween 20, 0.005% NaN3, pH 5.8). Each antibody was captured onto the sensor surface by protein A/G. Antibody capture levels were aimed at 200 resonance unit (RU). Serum-derived human C1s (CompTech) or recombinant C1s prepared in EXAMPLE 1 was injected at 50 nM, followed by dissociation. The sensor surface was regenerated in each cycle with 10 mM Glycine-HCl, pH 1.5. […] The ratio of KD 5.8+ to KD 7.4+(“KD 5+/7+”) and that of KD 5.8− to KD 7.4+(“KD 5−/7+”) were calculated. When the KD 5+/7+ or KD 5−/7+ of a variant is larger than that of the parent antibody IPN009VH2-SG4GK/IPN009VK3-SK1, that variant is considered to be “pH”- or “pH and Ca”-dependent, respectively. When binding response in 5(+) buffer and/or in 5(−) buffer of a variant is much lower than that of IPN09VH2/IPN009VK3, that variant is also considered as “pH”- and/or “pH and Ca”-dependent. Therefore, such mutations are effective to generate “pH”- and/or “pH and Ca”-dependent antibody. To further enhance “pH” and/or “pH and Ca” dependency, a combination of histidine mutations was conducted. Antibodies with combinations of histidine mutations were evaluated using Biacore by the method described above.

human C1s [3] = target: T1, human C1s; assay: SPR; KD at pH 5.8 (1.2 mM Ca) over KD at pH 7.4 (1.2 mM Ca)
Description: as §1

human C1s [4] = target: T1, human C1s; assay: SPR (Biacore T200, 37C), Ab captured on protein A/G; pH 7.4, 1.2 mM Ca
Description: as §1

human C1s [5] = target: T1, human C1s; assay: SPR; KD at pH 5.8 (3 uM Ca) over KD at pH 7.4 (1.2 mM Ca)
Description: as §1

human C1s [6] = target: T1, human C1s; assay: SPR (Biacore T200, 37C), Ab captured on protein A/G; pH 5.8, 3 uM Ca
Description: as §1

human C1s [7] = target: T1, human C1s; assay: SPR (Biacore T200, 37C), Ab captured on protein A/G; pH 5.8, 1.2 mM Ca; pH 5.8, 1.2 mM Ca

B1: C1_IPN92H0288-SG4GK/IPN93L0211-SK1 (antibody, human IgG4 S228P, kappa)
heavy: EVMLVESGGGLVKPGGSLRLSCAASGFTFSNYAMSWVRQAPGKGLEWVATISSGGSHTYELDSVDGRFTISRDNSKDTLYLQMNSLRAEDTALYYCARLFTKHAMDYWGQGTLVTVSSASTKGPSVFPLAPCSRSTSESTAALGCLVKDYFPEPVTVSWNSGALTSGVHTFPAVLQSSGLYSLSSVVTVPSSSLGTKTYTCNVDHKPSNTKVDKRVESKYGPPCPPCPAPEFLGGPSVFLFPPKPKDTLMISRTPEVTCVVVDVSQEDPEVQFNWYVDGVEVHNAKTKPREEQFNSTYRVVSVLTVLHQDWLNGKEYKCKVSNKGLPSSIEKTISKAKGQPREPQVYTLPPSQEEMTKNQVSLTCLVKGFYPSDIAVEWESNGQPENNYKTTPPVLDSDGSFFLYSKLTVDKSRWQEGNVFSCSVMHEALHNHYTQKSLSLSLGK
light: QIVLTQSPATLSLSPGERATLSCTASSEVSESYLHWYQQKPGKAPKLWIYSTSNLASGVPSRFSGSGSGTDYTLTISSLQPEDFATYYCHQYYRLHPITFGQGTKLEIKRTVAAPSVFIFPPSDEQLKSGTASVVCLLNNFYPREAKVQWKVDNALQSGNSQESVTEQDSKDSTYSLSSTLTLSKADYEKHKVYACEVTHQGLSSPVTKSFNRGEC
notes: also called IPN92H0288/IPN93L0211
Human C1s [1]
  koff: 0.00088 s⁻¹
Human C1s [2]
  koff: 0.0292 s⁻¹
Human C1s [3]
  KD 5(+)/7(+): 9.9
Human C1s [4]
  kon: 527000 M⁻¹ s⁻¹
Human C1s [5]
  KD 5(-)/7(+): 6.23
Human C1s [6]
  koff: 0.00504 s⁻¹
  kon: 485000 M⁻¹ s⁻¹
Human C1s [7]
  kon: 1.77e+06 M⁻¹ s⁻¹
